Assay results as given in the supplement of paper PMC10724198.
± gives the standard deviation of the averaged measurements.

Tests used:
Experiment in all cases: protein stability index of tFT-peptide fusion (C-terminal peptide) (PSI (0-1 scale)); higher = more stable (slower turnover)
[1] = system: Saccharomyces cerevisiae; conditions: temperature: 30 C
Procedure: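 MPS profiling in S. cerevisiae of the yeast C-terminome library: the last 12 aa of each annotated ORF are fused to the C-terminus of a sfGFP-mCherry timer, after a GGGS linker. Cells are FACS-sorted into 8 mCherry/sfGFP bins and deep-sequenced. PSI runs from 0 (unstable) to 1 (stable); wild type and das1Δ backgrounds, two technical replicates each.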

[2] = system: Saccharomyces cerevisiae; conditions: genetic background: wild type; temperature: 30 C
[3] = system: Saccharomyces cerevisiae
Procedure: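 MPS profiling in S. cerevisiae of the tFT-X12 degron library: putative degron peptides plus stable controls, 12 aa, fused to the C-terminus of a sfGFP-mCherry timer. Cells are FACS-sorted into 8 mCherry/sfGFP bins and deep-sequenced. PSI runs from 0 (unstable) to 1 (stable). Backgrounds are wild type, das1Δ and doa10Δ at 30 °C, and wild type, das1Δ, cdc34-1 and cdc53-1 at 37 °C; 2-3 technical replicates each.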

[4] = genetic background: das1 deletion
[5] = genetic background: cdc34-1, temperature: 37 C
[6] = genetic background: cdc53-1, temperature: 37 C
[7] = genetic background: das1 deletion, temperature: 30 C
[8] = genetic background: das1 deletion, temperature: 37 C
[9] = genetic background: doa10 deletion, temperature: 30 C
[10] = genetic background: wild type, temperature: 30 C
[11] = genetic background: wild type, temperature: 37 C

| Sequence | protein stability index [1, 4] | protein stability index ([1]; genetic background: wild type) | protein stability index [2] | protein stability index [3, 5] | protein stability index [3, 6] | protein stability index [3, 7] | protein stability index [3, 8] | protein stability index [3, 9] | protein stability index [3, 10] | protein stability index [3, 11] |
| --- | --- | --- | --- | --- | --- | --- | --- | --- | --- | --- |
| LRNQSPFTSSNE [YKL107W C-terminal 12 aa] | 0.695 ± 0.02 | 0.682 ± 0.029 |  |  |  |  |  |  |  |  |
| ASSSDRPTVAAT [RRT5 C-terminal 12 aa] | 0.6995 ± 0.0066 | 0.681 ± 0.021 |  |  |  |  |  |  |  |  |
| SDLNVLLQIKHS [YNL228W C-terminal 12 aa] | 0.7201 ± 0.00055 | 0.31 ± 0.015 |  |  |  |  |  |  |  |  |
| TLSKEPFLVFSF [YDL185C-A C-terminal 12 aa] | 0.499 ± 0.026 | 0.494 ± 0.025 |  |  |  |  |  |  |  |  |
| AVETLKKGGFLP [YDL177C C-terminal 12 aa] | 0.7 ± 0.013 | 0.685 ± 0.0071 |  |  |  |  |  |  |  |  |
| GWDLRFEEDPSA [TRP5 C-terminal 12 aa] | 0.731 ± 0.018 | 0.6905 ± 0.0042 |  |  |  |  |  |  |  |  |
| VLELSLGFTKLD [MON2 C-terminal 12 aa] | 0.7141 ± 0.0071 | 0.707 ± 0.041 |  |  |  |  |  |  |  |  |
| GRVHGEEDPTKK [HSP12 C-terminal 12 aa] | 0.707 ± 0.024 | 0.6953 ± 0.0032 |  |  |  |  |  |  |  |  |
| ATICSVAFVKQN [EFM4 C-terminal 12 aa] | 0.6241 ± 0.0034 | 0.224 ± 0.011 |  |  |  |  |  |  |  |  |
| QSFETVFAGQKP [MET17 C-terminal 12 aa] | 0.7008 ± 0.0036 | 0.702 ± 0.027 |  |  |  |  |  |  |  |  |
| EKLKLLNSQQKD [PET191 C-terminal 12 aa] | 0.682 ± 0.014 | 0.722 ± 0.029 |  |  |  |  |  |  |  |  |
| NSSSNESIQVVV [SFK1 C-terminal 12 aa] | 0.706 ± 0.043 | 0.696 ± 0.037 |  |  |  |  |  |  |  |  |
| KKGRQERKLANR [PPZ2 C-terminal 12 aa] | 0.689 ± 0.026 | 0.683 ± 0.029 |  |  |  |  |  |  |  |  |
| RAEVAALAAENK [PFK1 C-terminal 12 aa] | 0.6903 ± 0.0045 | 0.6608 ± 0.0054 |  |  |  |  |  |  |  |  |
| ENWIHVSCLSFM [LIN1 C-terminal 12 aa] | 0.6634 ± 0.0048 | 0.6503 ± 0.0039 |  |  |  |  |  |  |  |  |
| SEYRRKQQEKKD [YPI1 C-terminal 12 aa] | 0.722 ± 0.019 | 0.688 ± 0.023 |  |  |  |  |  |  |  |  |
| KNRYLHLLEQHK [BET4 C-terminal 12 aa] | 0.692 ± 0.018 | 0.67 ± 0.04 |  |  |  |  |  |  |  |  |
| EEVLEETKEKVE [PRT1 C-terminal 12 aa] | 0.689 ± 0.034 | 0.685 ± 0.013 |  |  |  |  |  |  |  |  |
| AFKRKKQELGVN [QDR2 C-terminal 12 aa] | 0.671 ± 0.013 | 0.697 ± 0.089 |  |  |  |  |  |  |  |  |
| ISTLKAIYNKMD [PEX9 C-terminal 12 aa] | 0.69065 ± 0.0004 | 0.672 ± 0.009 |  |  |  |  |  |  |  |  |
| AVNGSDGQHCQI [AVT2 C-terminal 12 aa] | 0.687 ± 0.023 | 0.6543 ± 0.0021 |  |  |  |  |  |  |  |  |
| TSSQKIYHTSNK [IPK1 C-terminal 12 aa] | 0.686 ± 0.05 | 0.672 ± 0.049 |  |  |  |  |  |  |  |  |
| ANEALQHILDDS [INO2 C-terminal 12 aa] | 0.6882 ± 0.0011 | 0.69 ± 0.024 |  |  |  |  |  |  |  |  |
| RLEQGSNGFMFA [NAM8 C-terminal 12 aa] | 0.702 ± 0.026 | 0.699 ± 0.011 |  |  |  |  |  |  |  |  |
| NLVASKQLSTYK [RAV2 C-terminal 12 aa] | 0.694 ± 0.0082 | 0.641 ± 0.031 |  |  |  |  |  |  |  |  |

| Sequence | protein stability index [1, 4] | protein stability index ([1]; genetic background: wild type) | protein stability index [2] | protein stability index [3, 5] | protein stability index [3, 6] | protein stability index [3, 7] | protein stability index [3, 8] | protein stability index [3, 9] | protein stability index [3, 10] | protein stability index [3, 11] |
| --- | --- | --- | --- | --- | --- | --- | --- | --- | --- | --- |
| NLMVADDKVWRV [MCM3 C-terminal 12 aa] | 0.696 ± 0.017 | 0.7005 ± 0.0019 |  |  |  |  |  |  |  |  |
| DGLLKNVWSYSR [RPS21A C-terminal 12 aa] | 0.7161 ± 0.0069 | 0.7137 ± 0.0025 |  |  |  |  |  |  |  |  |
| QDMMSGFLGGSK [GET4 C-terminal 12 aa] | 0.69072 ± 1.9e-05 | 0.667 ± 0.0077 |  |  |  |  |  |  |  |  |
| PQGFEIIELLNF [ROM1 C-terminal 12 aa] | 0.717 ± 0.044 | 0.718 ± 0.013 |  |  |  |  |  |  |  |  |
| GVFSKSSAELRF [YDL016C C-terminal 12 aa] | 0.715 ± 0.013 | 0.706 ± 0.023 |  |  |  |  |  |  |  |  |
| DVDLTKSGGFKT [CKB2 C-terminal 12 aa] | 0.67664 ± 0.00023 | 0.714 ± 0.058 |  |  |  |  |  |  |  |  |
| RITRLSSMTYTY [YPS5 C-terminal 12 aa] | 0.711 ± 0.038 | 0.69 ± 0.033 |  |  |  |  |  |  |  |  |
| VFCSVGVSLFFG |  |  | 0.411 ± 0.021 | 0.335 ± 0.014 | 0.496 ± 0.027 | 0.289 ± 0.04 | 0.5138 ± 0.0017 | 0.258 ± 0.015 | 0.284 ± 0.023 | 0.5118 ± 0.0026 |
| LPTGLKTFLIAF |  |  | 0.461 ± 0.02 | 0.481 ± 0.0085 | 0.485 ± 0.031 | 0.414 ± 0.025 | 0.541 ± 0.026 | 0.374 ± 0.0094 | 0.405 ± 0.027 | 0.519 ± 0.0071 |
| VSFRISAIFVCV |  |  | 0.343 ± 0.044 | 0.232 ± 0.034 | 0.293 ± 0.02 | 0.216 ± 0.033 | 0.367 ± 0.0039 | 0.183 ± 0.011 | 0.202 ± 0.028 | 0.322 ± 0.045 |
| FSLLFVRFCFFL |  |  | 0.305 ± 0.037 | 0.2674 ± 0.00097 | 0.323 ± 0.0039 | 0.256 ± 0.037 | 0.4195 ± 0.0026 | 0.227 ± 0.0074 | 0.248 ± 0.039 | 0.3372 ± 0.0022 |
| CVFCRVAVGVDG |  |  | 0.516 ± 0.026 | 0.5389 ± 0.0011 | 0.5838 ± 0.0043 | 0.438 ± 0.03 | 0.616 ± 0.0086 | 0.428 ± 0.028 | 0.439 ± 0.0076 | 0.5899 ± 0.0034 |
| PGWALLQLVFLK |  |  | 0.456 ± 0.012 | 0.363 ± 0.004 | 0.298 ± 0.039 | 0.346 ± 0.032 | 0.4845 ± 0.0029 | 0.496 ± 0.035 | 0.353 ± 0.021 | 0.464 ± 0.011 |
| LLLCVVLVSVFG |  |  | 0.18 ± 0.0041 | 0.0374 ± 0.0057 | 0.0791 ± 0.044 | 0.122 ± 0.025 | 0.174 ± 0.02 | 0.0854 ± 0.0049 | 0.102 ± 0.023 | 0.134 ± 0.027 |
| SVLASFFSAFVC |  |  | 0.195 ± 0.01 | 0.459 ± 0.0087 | 0.6975 ± 0.0014 | 0.598 ± 0.011 | 0.7258 ± 0.0054 | 0.118 ± 0.015 | 0.118 ± 0.023 | 0.149 ± 0.0027 |
| VCPWGYCSEWGF |  |  | 0.759 ± 0.013 | 0.772 ± 0.047 | 0.82244 ± 0.00034 | 0.697 ± 0.023 | 0.8015 ± 0.0031 | 0.692 ± 0.043 | 0.687 ± 0.014 | 0.7887 ± 0.006 |
| VFFLFAVCSVLV |  |  | 0.152 ± 0.02 | 0.0858 ± 0.0079 | 0.18 ± 0.0095 | 0.106 ± 0.029 | 0.2738 ± 0.0011 | 0.0641 ± 0.0032 | 0.0857 ± 0.033 | 0.248 ± 0.04 |
| WALVLLVPVWFD |  |  | 0.471 ± 0.027 | 0.442 ± 0.031 | 0.553 ± 0.06 | 0.383 ± 0.032 | 0.567 ± 0.011 | 0.396 ± 0.055 | 0.402 ± 0.014 | 0.533 ± 0.0073 |
| HDLRRRVVSVMV |  |  | 0.372 ± 0.061 | 0.48 ± 0.046 | 0.4601 ± 0.0032 | 0.337 ± 0.025 | 0.55 ± 0.022 | 0.258 ± 0.013 | 0.297 ± 0.03 | 0.47615 ± 0.00044 |
| FSFPAFTFIVSI |  |  | 0.4357 ± 0.0022 | 0.352 ± 0.03 | 0.346 ± 0.006 | 0.336 ± 0.024 | 0.475 ± 0.024 | 0.502 ± 0.031 | 0.329 ± 0.0099 | 0.447 ± 0.035 |
| GKWVWSSFVWFG |  |  | 0.19 ± 0.0062 | 0.457 ± 0.033 | 0.541 ± 0.011 | 0.509 ± 0.023 | 0.674 ± 0.03 | 0.0899 ± 0.0064 | 0.0965 ± 0.021 | 0.0945 ± 0.0042 |
| VWFGGFVCSVLG |  |  | 0.393 ± 0.039 | 0.366 ± 0.019 | 0.361 ± 0.012 | 0.314 ± 0.028 | 0.4478 ± 0.0026 | 0.244 ± 0.0056 | 0.297 ± 0.026 | 0.415 ± 0.018 |
| KEKGVTKIRISS |  |  | 0.295 ± 0.0055 | 0.6166 ± 0.0019 | 0.6861 ± 0.0021 | 0.632 ± 0.024 | 0.7071 ± 0.0024 | 0.1724 ± 0.00028 | 0.195 ± 0.037 | 0.377 ± 0.024 |
| SRPEPNGLRKLV |  |  | 0.293 ± 0.069 | 0.587 ± 0.009 | 0.727 ± 0.015 | 0.605 ± 0.029 | 0.751 ± 0.018 | 0.139 ± 0.024 | 0.172 ± 0.024 | 0.315 ± 0.052 |
| LLTAARAQLFAV |  |  | 0.503 ± 0.046 | 0.65 ± 0.0086 | 0.704 ± 0.029 | 0.578 ± 0.016 | 0.7 ± 0.022 | 0.457 ± 0.013 | 0.477 ± 0.019 | 0.6168 ± 0.0014 |
